Measured values reported in patent US12091453B2, “Epitope specific to SMO protein, antibody recognizing same, and composition comprising same” (HEDGEHOG, INC., priority 2018, dated 2024).
“Also recorded” adds a separate entry of the source.

B1: humanized SMO antibody No. 7: humanized SMO antibody, VH SEQ ID NO: 23 and VL SEQ ID NO: 28 (antibody, V domains shown)
VH: QVQLVQSGAEVKKPGASVKVSCKASGYTFTEYTMHWVRQAPGQRLEWMGGINPNTGDTRYNQKFKGRVTITVDKSASTAYMELSSLRSEDTAVYYCARDYYGSPFVYWGQGTLVTVSS
VL: DIVMTQSPLSLPVTPGEPASISCRSSQSIVHSSGYTFLDWYLQKPGQSPQLLIYKVSNRFSGVPDRFSGSGSGTDFTLKISRVEAEDVGVYYCFQGSHVPLTFGGGTKVEIK
modifications: huSM01-21-07 VH; huSM01-21-07 VL
B2: humanized SMO antibody No. 16: humanized SMO antibody, VH SEQ ID NO: 25 and VL SEQ ID NO: 29 (antibody, V domains shown)
VH: QVQLVQSGAEVKKPGASVKVSCKASGYTFTEYTMHWVRQAPGQGLEWMGGINPNTGDTRYNQKFKGRVTMTVDKSTSTVYMELSSLRSEDTAVYYCARDYYGSPFVYWGQGTLVTVSS
VL: DIQMTQSPSSLSASVGDRVTITCRSSQSIVHSSGYTFLDWYQQKPGKAPKLLIYKVSNRFSGVPSRFSGSGSGTDFTLTISSLQPEDFATYYCFQGSHVPLTFGQGTKVEIK
modifications: huSM01-21-16 VH; huSM01-21-15 VL
B3: humanized SMO antibody No. 15: humanized SMO antibody, VH SEQ ID NO: 24 and VL SEQ ID NO: 29 (antibody, V domains shown)
VH: QVQLVQSGAEVKKPGASVKVSCKASGYTFTEYTMHWVRQAPGQRLEWMGGINPNTGDTRYNQKFKGRVTITVDKSASTAYMELSSLRSEDTAVYYCARDYYGSPFVYWGQGTLVTVSS
VL: DIQMTQSPSSLSASVGDRVTITCRSSQSIVHSSGYTFLDWYQQKPGKAPKLLIYKVSNRFSGVPSRFSGSGSGTDFTLTISSLQPEDFATYYCFQGSHVPLTFGQGTKVEIK
modifications: huSM01-21-15 VH; huSM01-21-15 VL
B4: humanized SMO antibody No. 17: humanized SMO antibody, VH SEQ ID NO: 26 and VL SEQ ID NO: 29 (antibody, V domains shown)
VH: EVQLVQSGAEVKKPGATVKISCKVSGYTFTEYTMHWVQQAPGKGLEWMGGINPNTGDTRYNQKFKGRVTITVDKSTDTAYMELSSLRSEDTAVYYCARDYYGSPFVYWGQGTLVTVSS
VL: DIQMTQSPSSLSASVGDRVTITCRSSQSIVHSSGYTFLDWYQQKPGKAPKLLIYKVSNRFSGVPSRFSGSGSGTDFTLTISSLQPEDFATYYCFQGSHVPLTFGQGTKVEIK
modifications: huSM01-21-17 VH; huSM01-21-15 VL

How the values were obtained:
Assay type in all cases: cell-based
HCT116 cell line = assay: Transwell migration assay; conditions: HCT116, 10 μg/ml, 48 h
Protocol: After HCT116 cell line was plated in a transwell, each of humanized SMO antibody Nos. 7, 15, 16, and 17 was added at a concentration of 10 μg/ml. Following 48 h, cell motility was measured using a Diff-Quik kit.

SMO = assay: Western blotting of HCT116 cell line treated with humanized SMO antibodies; conditions: HCT116, 10 and 20 μg/ml, serum free media
Protocol: (§1) HCT116 cell line was purchased from the Korean Cell Line Bank. 24 h after cells were plated in a […] at a density of 5×10^5 cells/cm^2, they were treated with different concentrations (10 and 20 μg/ml) of each of humanized SMO antibody Nos. 5, 7, 15, 16, and 17 in serum free media.
(§2) Cells were disrupted by a combination of mechanical homogenization and sonication in a lysis buffer (7 M urea, 2 M thiourea, 4% CHAPS, 40 mM Tris, 100 mM DTT) supplemented with protease, followed by centrifugation at 15,000 rpm and 4° C. for 20 min. Proteins in the supernatant were quantified with NanoDrop by bicinchoninic acid (BCA) assay.
(§3) 30 μg of the proteins isolated from the collected tissues were subjected to electrophoresis, transferred to a PVDF membrane, labeled with anti-GLI1 antibody (cell signaling, MA, USA), anti-SMO antibody (Santa Cruz, CA, USA), and anti β-actin antibody as primary antibodies and an HRP-conjugated anti-rabbit antibody as a secondary antibody, and detected by chemiluminescence staining. The expression levels of SMO protein were measured by the enhanced chemiluminescence (ECL) method.

GLI1 = assay: as above; conditions: HCT116, 10 and 20 μg/ml, serum free media
Protocol: as §1, §2, §3

[1] = test system: SHH-induced GLI transcriptional activity; assay: NIH3T3-GLI reporter assay, humanized SMO antibodies; conditions: NIH3T3-GLI cells, Sonic hedgehog peptide 15 h, 10 and 20 μg/ml antibody 6 h
Protocol: GLI Repoter-NIH3T3 cell line was purchased from BPS Bioscience (CA, USA).
After NIH3T3-GLI cells having GLI transcriptional activity were plated in a 96-well plate at a density of 1×10^4 cells/cm^2, 2% BCS was treated with Sonic hedgehog peptide. Following 15 h, the cells were treated with different concentrations (10 and 20 μg/ml) of each of humanized antibody Nos. 5 (Production Example 6), 7 (Production Example 7), 15 (Production Example 8), 16 (Production Example 9), and 17 (Production Example 10) for 6 h. GLI1 Reporter activity (%) was measured through luminescence using a Reporter assay kit (Promega, WI, USA). The above procedure was repeated except that the SMO small-molecule inhibitor vismodegib or erismodegib was used as a positive control instead of the inventive SMO antibody.

Molecule	cell motility (HCT116 cell line)	expression level of SMO protein (SMO)	expression level of GLI1 protein (GLI1)	transcriptional activity of GLI (GLI1 Reporter activity) [1]	cell motility compared to treatment with vismodegib or erismodegib (positive control) (HCT116 cell line)
B1	reduction in cell motility	reduce the expression levels	reduce the expression levels	significantly inhibited the transcriptional activity of GLI; also recorded: effectively inhibit the SHH-induced GLI transcriptional activity	
B2	reduction in cell motility; also recorded: highest activities to reduce cell mobility	reduce the expression levels	reduce the expression levels	significantly inhibited the transcriptional activity of GLI; also recorded: effectively inhibit the SHH-induced GLI transcriptional activity	significantly inhibited cell motility
B3	reduction in cell motility	reduce the expression levels	reduce the expression levels	significantly inhibited the transcriptional activity of GLI; also recorded: effectively inhibit the SHH-induced GLI transcriptional activity	
B4	reduction in cell motility; also recorded: highest activities to reduce cell mobility	reduce the expression levels	reduce the expression levels	significantly inhibited the transcriptional activity of GLI; also recorded: effectively inhibit the SHH-induced GLI transcriptional activity	significantly inhibited cell motility
